Data set [1] deals with T1, human LTBP4 TP2E fragment (amino acids 357-586).
T1 sequence: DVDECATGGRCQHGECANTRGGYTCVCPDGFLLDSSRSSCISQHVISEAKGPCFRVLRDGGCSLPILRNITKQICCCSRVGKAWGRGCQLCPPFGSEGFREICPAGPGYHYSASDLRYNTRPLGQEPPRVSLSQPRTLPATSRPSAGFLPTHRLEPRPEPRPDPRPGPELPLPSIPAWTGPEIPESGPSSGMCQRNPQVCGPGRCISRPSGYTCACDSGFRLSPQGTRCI

For data set [2], the target named is murine LTBP4 TP2E fragment (UniProt Q8K4G1).
Data set [3] has as its system T2, human LTBP4 proline-rich region fragment (FIG. 5).
T2 sequence: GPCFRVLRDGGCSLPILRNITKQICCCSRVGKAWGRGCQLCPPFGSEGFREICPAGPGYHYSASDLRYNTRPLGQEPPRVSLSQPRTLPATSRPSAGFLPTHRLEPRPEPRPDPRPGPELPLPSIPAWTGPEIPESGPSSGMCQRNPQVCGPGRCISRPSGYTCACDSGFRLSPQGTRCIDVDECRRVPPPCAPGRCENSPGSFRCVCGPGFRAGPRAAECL

In data set [4] the target is murine LTBP4 deleted for the 12 amino acids (expressed fragment, FIG. 5) (UniProt Q8K4G1).
The target of data set [5] is T3, Murine LTBP4 with the 12-amino-acid insertion (expressed fragment, FIG. 5) (UniProt Q8K4G1).
T3 sequence: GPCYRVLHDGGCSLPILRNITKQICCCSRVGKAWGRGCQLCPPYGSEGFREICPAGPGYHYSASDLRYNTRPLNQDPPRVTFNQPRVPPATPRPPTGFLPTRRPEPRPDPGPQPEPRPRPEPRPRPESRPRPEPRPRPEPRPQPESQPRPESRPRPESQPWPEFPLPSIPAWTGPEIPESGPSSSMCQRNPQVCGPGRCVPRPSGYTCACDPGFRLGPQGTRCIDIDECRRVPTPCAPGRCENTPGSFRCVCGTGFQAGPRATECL

Data set [6] relates to human latent TGFβ binding protein 4 (LTBP4), full-length.
human latent TGFβ binding protein 4 (LTBP4), full-length, sequence (chain, as listed by the source): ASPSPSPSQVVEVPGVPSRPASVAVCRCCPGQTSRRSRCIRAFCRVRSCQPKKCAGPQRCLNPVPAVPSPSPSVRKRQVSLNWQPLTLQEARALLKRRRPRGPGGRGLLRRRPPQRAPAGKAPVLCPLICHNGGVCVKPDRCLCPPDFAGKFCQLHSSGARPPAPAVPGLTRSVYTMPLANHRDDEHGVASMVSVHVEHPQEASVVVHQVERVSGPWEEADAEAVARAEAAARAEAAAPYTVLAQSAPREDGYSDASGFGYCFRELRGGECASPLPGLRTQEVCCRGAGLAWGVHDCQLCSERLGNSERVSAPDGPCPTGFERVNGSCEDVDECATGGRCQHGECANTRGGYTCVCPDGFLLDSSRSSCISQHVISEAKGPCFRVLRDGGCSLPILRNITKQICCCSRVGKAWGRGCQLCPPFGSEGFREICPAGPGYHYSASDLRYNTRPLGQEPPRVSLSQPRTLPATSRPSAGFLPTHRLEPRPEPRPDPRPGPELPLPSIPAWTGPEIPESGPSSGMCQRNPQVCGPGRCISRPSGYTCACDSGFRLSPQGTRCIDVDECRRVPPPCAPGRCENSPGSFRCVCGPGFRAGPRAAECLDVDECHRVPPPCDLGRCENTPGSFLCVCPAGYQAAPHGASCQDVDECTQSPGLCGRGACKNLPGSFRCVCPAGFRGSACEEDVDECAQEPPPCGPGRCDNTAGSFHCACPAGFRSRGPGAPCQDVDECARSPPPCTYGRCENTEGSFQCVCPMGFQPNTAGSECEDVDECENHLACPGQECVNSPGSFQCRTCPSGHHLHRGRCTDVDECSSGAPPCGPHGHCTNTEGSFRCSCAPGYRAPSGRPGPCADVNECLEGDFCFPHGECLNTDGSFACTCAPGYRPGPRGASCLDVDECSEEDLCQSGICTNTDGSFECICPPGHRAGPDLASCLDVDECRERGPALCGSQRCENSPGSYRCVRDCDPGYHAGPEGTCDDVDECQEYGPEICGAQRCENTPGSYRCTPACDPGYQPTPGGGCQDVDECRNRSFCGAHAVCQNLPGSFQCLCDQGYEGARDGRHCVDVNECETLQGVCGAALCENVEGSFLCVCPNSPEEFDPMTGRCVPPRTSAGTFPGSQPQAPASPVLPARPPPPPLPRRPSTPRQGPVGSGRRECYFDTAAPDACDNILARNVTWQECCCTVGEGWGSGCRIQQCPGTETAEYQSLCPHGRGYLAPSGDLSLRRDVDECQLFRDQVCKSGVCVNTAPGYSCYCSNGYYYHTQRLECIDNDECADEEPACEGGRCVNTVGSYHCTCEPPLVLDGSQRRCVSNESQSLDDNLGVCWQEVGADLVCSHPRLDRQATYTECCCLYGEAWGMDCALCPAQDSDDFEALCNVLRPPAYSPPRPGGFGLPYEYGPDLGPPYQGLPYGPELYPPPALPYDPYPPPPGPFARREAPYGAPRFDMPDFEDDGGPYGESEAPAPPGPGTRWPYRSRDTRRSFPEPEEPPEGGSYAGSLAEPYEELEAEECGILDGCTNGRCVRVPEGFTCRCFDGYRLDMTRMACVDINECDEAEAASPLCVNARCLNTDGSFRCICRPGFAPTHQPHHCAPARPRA

plasmin, sequence (P00747 20-580): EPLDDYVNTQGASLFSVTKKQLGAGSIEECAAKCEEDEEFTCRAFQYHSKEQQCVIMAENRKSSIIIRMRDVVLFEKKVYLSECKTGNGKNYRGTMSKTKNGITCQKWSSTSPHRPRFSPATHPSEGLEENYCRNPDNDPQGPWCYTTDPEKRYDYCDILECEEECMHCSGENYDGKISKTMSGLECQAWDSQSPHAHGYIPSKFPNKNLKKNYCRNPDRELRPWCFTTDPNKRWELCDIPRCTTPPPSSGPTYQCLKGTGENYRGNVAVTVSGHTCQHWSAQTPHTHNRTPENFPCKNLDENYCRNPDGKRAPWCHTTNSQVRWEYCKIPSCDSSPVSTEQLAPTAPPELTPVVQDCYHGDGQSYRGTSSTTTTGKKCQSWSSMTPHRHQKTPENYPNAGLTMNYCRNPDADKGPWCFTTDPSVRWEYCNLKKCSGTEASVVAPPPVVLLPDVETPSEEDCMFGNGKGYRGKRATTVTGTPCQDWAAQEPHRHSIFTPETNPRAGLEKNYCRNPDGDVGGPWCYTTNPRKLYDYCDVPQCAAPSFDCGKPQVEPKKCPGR
plasmin, sequence (P00747 581-810): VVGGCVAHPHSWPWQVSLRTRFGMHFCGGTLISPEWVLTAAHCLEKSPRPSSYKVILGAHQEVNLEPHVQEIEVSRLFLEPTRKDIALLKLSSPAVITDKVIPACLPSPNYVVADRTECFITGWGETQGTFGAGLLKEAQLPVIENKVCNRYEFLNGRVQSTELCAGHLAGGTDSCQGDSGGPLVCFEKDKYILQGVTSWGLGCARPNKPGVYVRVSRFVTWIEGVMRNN

Turning to elastase, the “proteolytic digestion of 35S-labeled fragment (dose-response and time course)” value in data set [1] and in data set [2] was “the human TP2E fragment is more readily cleaved than the mouse LTBP4 sequence” each time.
In the case of plasmin, the entries for the “proteolysis of expressed labeled fragment by plasmin” value in data set [3], in data set [4] and in data set [5] were “The human LTBP4 was most readily degraded”, “the murine LTBP4 deleted for the 12 amino acids was readily degraded” and “Murine LTBP4 with the 12-amino-acid insertion was largely resistant to proteolysis”, respectively. Moreover, in data set [6], the “plasmin proteolysis of full-length LTBP4” value was “Full-length LTBP4 protein, produced from cultured cells, is also susceptible to plasmin proteolysis”. The “proteolytic digestion of 35S-labeled fragment (dose-response and time course)” value in data set [1] and in data set [2] was “the human TP2E fragment is more readily cleaved than the mouse LTBP4 sequence” in each case.
